# Experimental data reported in patent US20210324050A1 (published 2021).
# T1: Shell domain (UniProt P54635 1-221)
# T1 chain: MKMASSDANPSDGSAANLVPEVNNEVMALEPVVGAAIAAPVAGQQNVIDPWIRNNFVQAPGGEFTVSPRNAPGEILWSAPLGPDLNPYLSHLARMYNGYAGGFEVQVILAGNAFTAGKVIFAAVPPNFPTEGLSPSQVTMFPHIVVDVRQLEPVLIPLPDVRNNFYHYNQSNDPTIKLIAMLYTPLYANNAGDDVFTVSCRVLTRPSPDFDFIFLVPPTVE
# T2: GI.1 (M87661) VLPs (UniProt Q83884 1-530; Q83885 1-212)
# T2 VP1: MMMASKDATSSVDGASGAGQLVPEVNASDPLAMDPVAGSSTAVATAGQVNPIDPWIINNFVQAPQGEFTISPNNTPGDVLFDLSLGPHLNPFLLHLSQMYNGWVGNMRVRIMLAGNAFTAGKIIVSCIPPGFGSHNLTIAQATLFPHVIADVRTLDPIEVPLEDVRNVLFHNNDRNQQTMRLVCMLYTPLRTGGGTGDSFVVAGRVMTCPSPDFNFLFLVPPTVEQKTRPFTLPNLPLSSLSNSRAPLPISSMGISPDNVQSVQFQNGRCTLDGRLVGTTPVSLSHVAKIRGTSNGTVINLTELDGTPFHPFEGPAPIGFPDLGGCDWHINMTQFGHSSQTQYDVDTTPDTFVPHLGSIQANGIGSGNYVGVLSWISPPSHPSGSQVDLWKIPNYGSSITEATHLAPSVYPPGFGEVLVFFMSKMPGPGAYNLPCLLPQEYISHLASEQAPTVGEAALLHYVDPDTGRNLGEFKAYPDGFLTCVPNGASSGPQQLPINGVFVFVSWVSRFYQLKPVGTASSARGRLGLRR
# T2 VP2: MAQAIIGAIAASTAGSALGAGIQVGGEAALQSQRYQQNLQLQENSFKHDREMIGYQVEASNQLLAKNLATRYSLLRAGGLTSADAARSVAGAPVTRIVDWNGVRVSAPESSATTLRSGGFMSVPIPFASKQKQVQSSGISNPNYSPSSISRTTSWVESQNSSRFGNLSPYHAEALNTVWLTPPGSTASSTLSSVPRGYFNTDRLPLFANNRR
# Experiments:
# [1] = target: Protruding domain; assay: ELISA
# [2] = target: T1, Shell domain; assay: ELISA
# [3] = target: T3, GII.4 Houston 2002 VLP (UniProt P54635 1-539); assay: ELISA binding
# [4] = target: GII.13 (norovirus GII.13); assay: ELISA
# [5] = target: GII.6 (norovirus GII.6); assay: ELISA
# [6] = target: GII.3 (norovirus GII.3); assay: ELISA
# [7] = target: GII.4 (UniProt P54635 1-538); assay: VLP-PGM blockade
# [8] = target: GII.6 (norovirus GII.6); assay: VLP-PGM blockade
# [9] = target: T3, GII.4 Houston 2002 VLP; assay: VLP blockade
# [10] = target: GII.6 Protruding (norovirus GII.6); assay: ELISA
# [11] = target: GII.17 Protruding (norovirus GII.17); assay: ELISA
# [12] = target: GII.4 Protruding; assay: ELISA
# [13] = target: GII.17 (norovirus GII.17); assay: ELISA
# [14] = target: GI.3 (norovirus GI.3); assay: ELISA
# [15] = target: GII.17 Shell (norovirus GII.17); assay: ELISA
# [16] = target: GI.3 Shell (norovirus GI.3); assay: ELISA
# [17] = target: GI.3 Protruding (norovirus GI.3); assay: ELISA
# [18] = target: GII.6 Shell (norovirus GII.6); assay: ELISA
# [19] = target: T2, GI.1 (M87661) VLPs; assay: ELISA
# [20] = target: GII.6 (AF414410) VLPs (norovirus GII.6); assay: VLP-PGM blockade
# [21] = target: GII.6 (AF414410) VLPs (norovirus GII.6); assay: ELISA
# [22] = target: GI.2 (AF435807) VLPs (norovirus GI.2); assay: ELISA
binder,measurement,setting,value
"232A.2 (antibody, V domains shown) VH: QVQLKQWGAGLLKSSETLSLTCAFNGNSFGAFYWSWIRLSPGKGLEWIGEVNYLGGADYNPSLKSRVTMSADTSKRQFSLSLKSVTAADTGVYFCARGRPHDYSPGSYSRPRRYYGLDVWGQGTTVTVSS VL: EIVLTQSPATLSLSPGDSATLSCRASQAVSTTYLAWYQQTRGQAPRLLIHGTYTRAIGIPDKFSGTGSGTDFTLTISGLAPEDFAVYYCQQYSSSPYTFGQGTKIEIT",EC50,[1],0.4 µg/mL
same,EC50,[2],38.1 µg/mL
same,EC50,[3],0.2 µg/mL
same,EC50,[4],2 nM
same,EC50,[5],1 nM
same,EC50,[6],1 nM
same,EC50,[7],115 nM
same,EC50,[8],20 nM
same,EC50,[9],5.4 µg/mL
same,EC50,[10],2 nM
same,EC50,[11],2 nM
same,EC50,[12],3 nM
"168.2 (antibody, V domains shown) VH: QVQLVESGGGVVQPGRSLRLSCAASGFTFSSYAMHWVRQAPGKGLEWVAVISYDGSNKYYADSVKGRFTISRDNSKNTLYLQMNSLRAEDTAVYYCARSVIGYYYYGMDVWGQGTLVTVSS VL: QPVLTQPPSASASLGASVTLTCTLSSGYSNYKVDWYQQRPGKGPRFVMRVGTGGIVGSKGDGIPDRFSVLGSGLNRYLTIKNIQEEDESDYHCGADHGSGILFGGGTKLTVL",EC50,[4],107 nM
same,EC50,[13],153 nM
same,EC50,[14],8 nM
same,EC50,[6],224 nM
same,EC50,[15],183 nM
same,EC50,[10],135 nM
same,EC50,[11],390 nM
same,EC50,[16],37 nM
same,EC50,[17],143 nM
same,EC50,[18],162 nM
"NORO-156.3 (antibody, V domains shown) VH: QVQLQQWGAGLLKPSETLSLTCAVYGGSFSGYYWSWIRQPPGKGLEWIGEINHSGSTNYNPSLKSRVTISVDTSKNQFSLKLSSVTAADTAVYYCARGLMDVWGQGTLVTVSS VL: AIRMTQSPSSFSASTGDRVTITCRASQGISSYLAWYQQKPGKAPKLLIYAASTLQSGVPSRFSGSGSGTDFTLTISCLQSEDFATYYCQQYYSYPRTFGQGTKLEIK",EC50,[19],42 nM
same,EC50,[20],355 nM
same,EC50,[21],39 nM
same,EC50,[22],175 nM
